Experimental data published in the DeepSol protein solubility set.

assay: soluble on expression in E. coli; label from the status in PepcDB or PDB records

Row | Sequence | soluble on expression in E. coli
1 | MSLRKYPEYTWDLTTIFKDDEAFEAAFKEVENELGKEEQFKGHIGDSAETLYNALELEDTLGTKLEKVYVYAHLKQDQDTTNDKYTGMESRAHQLIIKFSSAWSFLVPEILQIDEDKIQSFVNSYDKLQKFAFDLKLINEKRPHILDAETEKLLTEAQDALSTPSNVYGMFSNADLVFEDAIDKDGNAHPLTQGTFIKYLESDDRKLRESAFRNVYKAYGAHNNTLGATLAGEVKKNVFNARTHNYKTAREKALSNNHIPENVYDNLVKTVHKYLPLLHRYTELRKELLGLDDLKMYDLYTPLIKDIKFEMPYEEAKEWMLKALEPMGEEYLNVVKEGLNNRWVDVYENKGKRSGGYSSGAHLTNPFILLNWSNTISDLYTLVHEFGHSAHSYFSRKFQPSNSSDYTIFVAEVASTCNEALLSDYMDKHLDDEKRLLLLNQELERFRATLFRQTMFAEFEHKIHAIEEAGEPLTPTRMNEEYAKLNKLYFGDSVETDEDISKEWSRIPHFYMNYYVYQYATGYSAAQSLSHQILTEGKPAVDRYINEFLKKGSSNYPIEILKNAGVDMTTPEPIEQACEVFEQKLNAFEKLMKEGHHHHHH | soluble
2 | MSLRNEVQFELFGDYALFTDPLTKIGGEKLSYSVPTYQALKGIAESIYWKPTIVFVIDELRVMKPIQMESKGVRPIEYGGGNTLAHYTYLKDVHYQVKAHFEFNLHRPDLAFDRNEGKHYSILQRSLKAGGRRDIFLGARECQGYVAPCEFGSGDGFYDGQGKYHLGTMVHGFNYPDETGQHQLDVRLWSAVMENGYIQFPRPEDCPIVRPVKEMEPKIFNPDNVQSAEQLLHDLGGEEGHHHHHH | soluble
3 | MSLRNKLQQAKRIVIKVGTSSLIYPNGNINLKAIDQLAFTLSDLSNQGKEIILVSSGAIGVGLNKLNLSVRPTTIPEQQAVAAVGQAELMNIYNQRFSTYSQQMAQVLLTRDVIEYPESRNNVTNTFEQLLKMNIIPIVNENDTVAIEELDHLTKFGDNDQLSAIVCQIVQADLLVMLSDIDGFFSDNPTVNKEATLFSEINEINEDLFQLAGGKGSRFGTGGMSSKLKAAERVLANQQAMILANGKQPKIIFEILEGKDIGTLFIKGGHESDEGHHHHHH | soluble
4 | MSLRPATDSPPLCAPPGAEVRAPSFVMPAGACDTHAHVISGDLERYPLVPDRSYTPPPAPEALYLEVLRAMGMQRGVLVQPSVYGTDNRYMLEVLQRHQDQLRGVAVVDEHVGDDELAHMHALGVRGVRINVLFRGGVNLDLMEHLAHRIADLGWHMQFLIDVRLLSEIEARMAKLPCAVVIDHFGHFPAHLGIKEAGFELLLRNVAEHGWWVKLSGAYRLSDQRPDYADTDALAHALLAVAPERMVWGSDWPHVALESTPDTSSLLDRLLSWAPSERQRQSILVDNPGALYDFKEGHHHHHH | soluble
5 | MSLRPLAIIGPTGAGKSQLALDVAARLGARVSVEIVNADAMQLYRGMDIGTAKLPVSERRGIPHHQLDVLDVTETATVARYQRAAAADIEAIAARGAVPVVVGGSMLYVQSLLDDWSFPATDPSVRARWERRLAEVGVDRLHAELARRDPAAAAAILPTDARRTVRALEVVELTGQPFAASAPRIGAPRWDTVIVGLDCQTTILDERLARRTDLMFDQGLVEEVRTLLRNGLREGVTASRALGYAQVIAALDAGAGADMMRAAREQTYLGTRRYVRRQRSWFRRDHRVHWLDAGVASSPDRARLVDDAVRLWRHVTEGHHHHHH | soluble
6 | MSLRQGKIRVVLADDHTMFRQGLKEMLLTGGDIEVVGEAEDGRAALEEIRRHKPDVAILDVEMPEMDAREVMVRLPEASPHTRAVIVTVFAEARLARELVRLGARAYVTKNATLQELLAAVRSAARAAGGDNVLLAVPRGLIEGSGGPEGCELSERELEILLLVARGLSNRQVASELHLAEATVKRHLANVYAKLNVGSRGEAVRKALSKGWFTSRDVTEGHHHHHH | soluble
7 | MSLRSDSFEILRDCRALFLKHLGALLLDSGIISGSAIRAIQEGAGAYFDEMVSTTRRGSFSEEAHGLTSSRITLVGEDDLELGIRLDNLSARLFETTGGSLWRTHLRFVTLLRRPDLPKSANPIGPKGICQGLTTMFAASGASSIEQKLALLDRIEVYLLANLPGLYAEINDFLDRGGIEAAQATILGSPDGPKQADQSSANPLLALQQQLLARLPGGIASIQPPTGTGGAAASLLSQASLEQLIFRLNELDRQGAFRAQFKPGTSLSTESLIPELFSGSTAKASLPKALNSAELGIPSTATEGLAIDTLAIIFEAIFSEPTLPDTLKAAISSLQITLLKMAMKDASLFTDDKHPARLVIDRMGQAVLGLPTDVPARHPVCARLFEIASQLRSGNGDISAFQSALTQLDALVAERNNELAKSAAAYLPLLRQLDRRDEASIQTRHILDKLIEQKPPEAVQAFLNESWRKVLQLVWLENGPDSSQWQAHVTAIEELLWSFQPKTDPAERKSLAHRLPNILKLLKTGMERIGLPTEAQEAFLDDCFTLQTQALRAAPAAETGATSVIAATGLHASGSETVYGDVQSGQFVLNTLDFSDYQPGPARSLSCAIGDWLELRIDDSTTRVARICYISPNSQRTLLLNPDFGLALAIHPAILDRQLRAGEARIRSASSLFEIAASRALQKTTTNEGHHHHHH | soluble
8 | MSLRSKLFLILTLHRSGSSATAGVLYHLGVHMGQHLLKENESNPKGHFENEEFVAVNDRILHTIGGSWKKPPSPELIKQLKIPRRQVETFLLQHAKPAWGIKDPRMLLTFDLWKGPMERVADITYIIVHRPIKESIASLVRRNDMTELEAQQILLPYLGNKQRIREQLVEEGADIIDVHFSDLLQHPDELVAAVNQRLGRAPKKRLDDVRLFLDHSLKHEGHHHHHH | soluble
9 | MSLRVLKFGGTSVANAERFLRVADILESNARQGQVATVLSAPAKITNHLVAMIEKTISGQDALPNISDAERIFAELLTGLAAAQPGFPLAQLKTFVDQEFAQIKHVLHGISLLGQCPDSINAALICRGEKMSIAIMAGVLEARGHNVTVIDPVEKLLAVGHYLESTVDIAESTRRIAASRIPADHMVLMAGFTAGNEKGELVVLGRNGSDYSAAVLAACLRADCCEIWTDVDGVYTCDPRQVPDARLLKSMSYQEAMELSYFGAKVLHPRTITPIAQFQIPCLIKNTGNPQAPGTLIGASRDEDELPVKGISNLNNMAMFSVSGPGMKGMVGMAARVFAAMSRARISVVLITQSSSEYSISFCVPQSDCVRAERAMQEEFYLELKEGLLEPLAVTERLAIISVVGDGMRTLRGISAKFFAALARANINIVAIAQGSSERSISVVVNNDDATTGVRVTHQMLFNTDQVIEVFVIGVGGVGGALLEQLKRQQSWLKNKHIDLRVCGVANSKALLTNVHGLNLENWQEELAQAKEPFNLGRLIRLVKEYHLLNPVIVDCTSSQAVADQYADFLREGFHVVTPNKKANTSSMDYYHLLRHAAEKSRRKFLYDTNVGAGLPVIENLQNLLNAGDELMKFSGILSGSLSYIFGKLDEGMSFSEATTLAREMGYTEPDPRDDLSGMDVARKLLILARETGRELELADIEIEPVLPAEFNAEGDVAAFMANLSQLDDLFAARVAKARDEGKVLRYVGNIDEDGVCRVKIAEVDGNDPLFKVKNGENALAFYSHYYQPLPLVLRGYGAGNDVTAAGVFADLLRTLSWKLGVEGHHHHHH | soluble
10 | MSLRYFVFATFKVHKDATNSYFSNGDVVVVNRNRTPKYKDFIVYKVGKIFYISRVIGEPNQKVRVMDDILYLNDVFKDEPYIEKMKNAYSEKKDGQMPFTSDFSVETLTRNKESRVPKGSYLVLNDNRQNKNDSRKFGLIKEKDIRGVITFKVYPLSEFGFTASEGHHHHHH | soluble
11 | MSLRYLSESKVAIKHSNDLNGSNLNVALLMGAGNPSSAEDALYLKEYINSPDMLAVLDKQLDFRQAFGHSGWDFFYHLSDSATREQFLNYYRNRISVSYDDKTGLLTIGTQGFSPEFAQKFNQAVLKESERFINEEGHHHHHH | soluble
12 | MSLSAAEAGPLQGGLHVLIVDDNDINLKVLSTFMSKIGCSYDTASNGLVAVEKYRQTQQKFDYVLMDISMPIMDGITASRTIREYEDESLLERCTIMAVTGVASSDMQQQAFAAGMDDYLVKPLSLHDLKRILGVNEGHHHHHH | not soluble
13 | MSLSADKLYIDKELSWLSFNERVLQEAADKTVPLIERIRFLGIFSNNLDEFYKVRFADVKRQILINRERGGNDISKHLLSRMQSKALKLNQDFDNLYNELILEMARRRIFLVNETQLDEIQLKWVKKYFHKEVLPHVTPIMLRDDIDVMQFLKDEYAYIAVEMRSGDEFKYALIEIPTDQLPRFVMLPEQKGKRRKTIILLDNIIRLCLDEIFRGFYDYDTLNGYAMKMTRDAEYDLRHEVEYSLLEQMSEGLSQRLTALPVRFVYEREMPEAMLKFLCYKLKISHYDSLIPGGRYHNFKDFISFPNVGRDYLENKPLPPMTCADFEGYANAFDAIRAQDILLHYPYHSFEHMTELVRQASFDPKVVSIKINIYRVAKDSKLMNSLVDAVHNGKRVVVVVELQARFDEEANIEWSRILTDAGVHVIFGVPGMKIHAKLLLITRKEGDEFVRYAHIGTGNFHERTARIYTDFALLTANQELAAEVRAVFGYIENPFRPVKFNHLIVSPRNSRTQIYRLLDSEIANAKAGKKAAITLKVNNLVDKGLINKLYGASAAGVKIRMIIRGMCSLVPGVEGVSDNIEIISIIDRFLEHPRVLVVHNDGNPQVFISSADWMERNIDHRIEVMAPIRDERLKQRIIDILNIQFIDTVKARRIDKEMSNQYVERGNRRKVRSQIAIYDYLKNVEKQTRKAKGQQETNDNSSQEGHHHHHH | soluble
14 | MSLSAMARKVKITDVKCMIVRGTWDWNLIKIETDSGLYGIGEAYWGWGVKDLVVNKMKGIIVGEDPLNVDKLYTKMLMQSAGAGAIGGVTMTAASGIEIALWDLCGRILDTPVCNLLGGRFRDRIRFYRTTQAVKNVEDTKEWRALAESARAEKWGWTAFKFQGDGIPPRADPEFKEPGHDPYARNLTHKDHRRIVTAMETVRETLGPDADFAVECHWRYDTQDVISLGKELEPVKPMWLEDPVPPDNIEAMQRVTHAINVPVCTGENLYGRQGFRKLIEMQACSGVHIDIPKSGGLMESKKISDLADLYYIWTACHNPASPVGTIASCHASAAMREFRIHELANWVDWWPDLVIREGPFWKDGYFTIQDKPGYGVELNPDVAKAHLAPGETWWGEGHHHHHH | not soluble
15 | MSLSASPELADKKGIRACPFDEPKASDEINTGFMKIFTGGDTITARALYKEPIYFKPQFKPFLLCNELPTIKSDDDGTWRRLKVIPFLSKFIKHSEATKKMKKEGLPKNHFWADTSLSEKLPDWKQGFMCLLLKYFRKYRKHGLIHPKLVTQHTVEYRKKCDVFQDFIGDYLVRVDNTKKGISVMDLYQNMREWYKSNYTGKCPNAKDLRNYVQHRMPTYNKNAEGHHHHHH | not soluble
16 | MSLSDKKVLCVEDEEVIRSNLMETLELFFDKVSGAKDGFEALEQAMCDTYDVFIFDISIPHLDGLEVLKRVRQFNKKTPIVILSAHKEQEYLWRAVELKITRYLTKPYDKNSLIKALEEVALELMDYHPLFQISPLHSYDFCRKAMTCKGEMVYLSKKREPTEGHHHHHH | not soluble
17 | MSLSDVSRILKEARSQSRLTTLDYAEQIFDDFMELHGDRHFADDGAIVGGIGLLDGQAVTVIGVQKGKNLQDNLNRNFGQPNPEGYRKALRLMKQAEKFKRPVVTFINTAGAYPGIGAEERGQGEAIARNLLEMSDLKVPIIAIIIGEGGSGGALALAVADKVWMLEHTMYAVLSPEGFASILWKDGSRSIEAAELMKITAGELLKMEVVDKVIPEHGYFSSEIIQMLKTNLIEELKNLDQYPLNDLLEKRYQRFRKYEGHHHHHH | soluble
18 | MSLSEEDLEKFLIKELTLQGYERLNLSDINDLESNFKLQLQRLNNISFSPTEWESFYRQNITNLKLTFEDKTKMLQSDGFTLTLEKEDGSKKNIILIDRVNPINNHLQVISQLKNENGEFKNRYDVSILVNGLPLVHIELKRRGVNLKEAFNQIRRYQKESFLEGNALYEFVQIFIISNGTLTKYYSNTNEGHHHHHH | soluble
